Experimental data: paper PMC7192615, “Structure specific recognition of telomeric repeats containing RNA by the RGG-box of hnRNPA1”

Key:
UP1 = UP1 (UniProt P09651-2 1-196); test: ITC; 100 mM KCl; ITC/CD: 20 mM Tris pH 8.0, 100 mM KCl, 25 C; NMR: 10 mM potassium phosphate pH 6.5, 100 mM KCl, 298 K (10% D2O for HSQC); settings: protein: recombinant, tags: C-terminal 6xHis
UP1+RGG [1] = target: T1, UP1+RGG (UniProt P09651-2 1-249); test: as above; settings: protein: recombinant, tags: C-terminal 6xHis
RGG-box (isolated) [2] = target: T2, RGG-box (isolated) (UniProt P09651-2 197-249); test: as above; settings: protein: recombinant; tags: GST removed by TEV; intramolecular parallel G4
UP1+RGG [3] = target: T1, UP1+RGG; test: ITC; 100 mM KCl, 20% PEG 200; ITC/CD: 20 mM Tris pH 8.0, 100 mM KCl, 25 C; NMR: 10 mM potassium phosphate pH 6.5, 100 mM KCl, 298 K (10% D2O for HSQC); settings: protein: recombinant; tags: C-terminal 6xHis; intramolecular parallel G4
RGG-box (isolated) [4] = target: T2, RGG-box (isolated); test: NMR HSQC CSP titration (global fit); 100 mM KCl; ITC/CD: 20 mM Tris pH 8.0, 100 mM KCl, 25 C; NMR: 10 mM potassium phosphate pH 6.5, 100 mM KCl, 298 K (10% D2O for HSQC); settings: protein: recombinant; tags: GST removed by TEV; intramolecular parallel G4
[5] = parallel G4 tetramer of 4 strands, no loops
[6] = parallel G4 dimer of 2 strands, two loops

T1 sequence (P09651 1-249): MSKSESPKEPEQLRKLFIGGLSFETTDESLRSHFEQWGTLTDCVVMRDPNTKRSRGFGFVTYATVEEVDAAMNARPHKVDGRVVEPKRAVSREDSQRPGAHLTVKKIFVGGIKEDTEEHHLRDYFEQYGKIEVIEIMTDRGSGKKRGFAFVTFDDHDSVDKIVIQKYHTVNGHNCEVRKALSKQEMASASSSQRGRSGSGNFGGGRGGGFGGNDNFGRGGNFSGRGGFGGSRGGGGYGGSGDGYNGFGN
UP1, sequence (P09651 1-196): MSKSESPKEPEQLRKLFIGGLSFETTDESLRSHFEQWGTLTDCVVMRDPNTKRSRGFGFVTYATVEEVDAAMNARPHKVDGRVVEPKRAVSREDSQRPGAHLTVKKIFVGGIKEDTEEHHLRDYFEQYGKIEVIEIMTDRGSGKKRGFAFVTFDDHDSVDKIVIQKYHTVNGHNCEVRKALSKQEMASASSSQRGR
T2 sequence (P09651 197-249): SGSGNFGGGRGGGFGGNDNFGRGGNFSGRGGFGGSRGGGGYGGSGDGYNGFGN

Binder GAGUAACCCGUAUCGUGA (ssRNA) [ssRNA-18] has a Kd (UP1; single strand, 18 nt) of 2370 ± 490 nM and a Kd (UP1+RGG [1]; single strand, 18 nt) of 2280 ± 260 nM.

With UUAGGGUUAGGGUUAGGGUUAGGG (structured_RNA) [TERRA-24] the Kd (RGG-box (isolated) [2]) was 9000 ± 4300 nM, the Kd (UP1; intramolecular parallel G4) was 1710 ± 170 nM and the Kd (UP1+RGG [1]; intramolecular parallel G4) was 920 ± 170 nM. It also gave a Kd (UP1+RGG [3]) of 3000 ± 550 nM and a Kd (RGG-box (isolated) [4]) of 11000 ± 1500 nM.

UUAGGG (structured_RNA) [TERRA-6] showed a Kd (UP1; [5]) of 2020 ± 170 nM and a Kd (UP1+RGG [1]; [5]) of 2380 ± 230 nM.

UUAGGGUUAGGG (structured_RNA) [TERRA-12] showed a Kd (UP1; [6]) of 2040 ± 470 nM and a Kd (UP1+RGG [1]; [6]) of 1070 ± 140 nM.
